Measured values taken from paper PMC8588432, “Selection and Characterization of Vimentin-Binding Aptamer Motifs for Ovarian Cancer”.

Target: vimentin (human, UniProt P08670 2-466)
Experiment: filter binding; Filter binding: 20 mM Tris, 150 mM NaCl, pH 8.0, 2 h, room temperature, 10 uL; flow cytometry: fixed IGROV cells, 22 C, 1 h; microscopy: 37 C, 1 h
Settings: label: 5'-biotin; predicted stem-loop

vimentin, sequence (P08670 2-466): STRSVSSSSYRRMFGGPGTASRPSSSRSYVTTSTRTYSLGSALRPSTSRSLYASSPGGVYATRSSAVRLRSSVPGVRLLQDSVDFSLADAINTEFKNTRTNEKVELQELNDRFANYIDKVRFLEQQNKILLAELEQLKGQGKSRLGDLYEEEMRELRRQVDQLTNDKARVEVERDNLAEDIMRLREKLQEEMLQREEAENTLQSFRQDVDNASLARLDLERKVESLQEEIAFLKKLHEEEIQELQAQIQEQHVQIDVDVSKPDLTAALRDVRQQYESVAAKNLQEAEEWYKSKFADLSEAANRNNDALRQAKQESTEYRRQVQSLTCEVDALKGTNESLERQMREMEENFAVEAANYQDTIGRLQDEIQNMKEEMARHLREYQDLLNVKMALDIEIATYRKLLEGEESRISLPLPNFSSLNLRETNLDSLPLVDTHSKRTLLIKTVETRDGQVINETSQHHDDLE

Row | Binder | Kd
1 | TAGACCCAGCTGGTCCGGAAAATAAGATGTCACGGATCCTC (XNA, monothioated phosphates 3' of adenines (shown in red, positions not in text)) [V5M2] | 47.4 nM
2 | ACCTCTTCAAGAACATCCCTGTCACGGATCCTCTAGAGCA (XNA, monothioated phosphates 3' of adenines (shown in red, positions not in text)) [V3M2] | 18.9 nM
